Results published in patent US20230035659A1, “Compositions and Methods for TTR Gene Editing and Treating ATTR Amyloidosis Comprising a Corticosteroid or Use Thereof” (Intellia Therapeutics, Inc., priority 2019, published 2023).
Strand notation (5' to 3'): a small letter for the sugar, then the base; units joined by * are phosphorothioate-linked, units joined directly phosphodiester-linked; [ ] holds rarer units or linkages, { } end groups; capitals alone tell only the bases. m = 2'-O-methyl; r = 2'-OH (RNA)

Test system: TTR
Assay: TTR editing in primary cyno hepatocytes treated with LNP formulated Spy Cas9 mRNA (SEQ ID NO: 2) and sgRNAs, 12.5 ng mRNA
Format: cell-based, cynomolgus monkey
Details: LNP formulated Spy Cas9 mRNA (SEQ ID NO: 2) and cyno matched sgRNA, lysed 72 hours post treatment
Experimental: Primary liver hepatocytes. Primary human liver hepatocytes (PHH) and primary cynomolgus liver hepatocytes (PCH) (Gibco) were cultured per the manufacturer's protocol (Invitrogen, protocol 11.28.2012). In brief, the cells were thawed and resuspended in hepatocyte thawing medium with supplements (Gibco, Cat. CM7000) followed by centrifugation at 100 g for 10 minutes for human and 80 g for 4 minutes for cyno. The supernatant was discarded and the pelleted cells resuspended in hepatocyte plating medium plus supplement pack (Invitrogen, Cat. A1217601 and CM3000). Cells were counted and plated on Bio-coat collagen I coated 96-well plates (ThermoFisher, Cat. 877272) at a density of 33,000 cells/well for human or 60,000 cells/well for cyno (or 65,000 cells/well when assaying effects on TTR protein, described further below). Plated cells were allowed to settle and adhere for 6 or 24 hours in a tissue culture incubator at 37° C. and 5% CO2 atmosphere. After incubation cells were checked for monolayer formation and media was replaced with hepatocyte culture medium with serum-free supplement pack (Invitrogen, Cat. A1217601 and CM4000).
In general, the lipid nanoparticle components were dissolved in 100% ethanol with the lipid component of various molar ratios. The RNA cargos were dissolved in 25 mM citrate, 100 mM NaCl, pH 5.0, resulting in a concentration of RNA cargo of approximately 0.45 mg/mL. The LNPs were formulated with a lipid amine to RNA phosphate (N:P) molar ratio of about 4.5 or about 6, with the ratio of mRNA to gRNA at 1:1 by weight.
The LNPs were formed by microfluidic mixing of the lipid and RNA solutions using a Precision Nanosystems NanoAssemblr™ Benchtop Instrument, according to the manufacturer's protocol. A 2:1 ratio of aqueous to organic solvent was maintained during mixing using differential flow rates. […]
Additional PCR was performed per the manufacturer's protocols (Illumina) to add chemistry for sequencing. […] The reads were aligned to a reference genome (e.g., the human reference genome (hg38), the cynomologus reference genome (mf5), the rat reference genome (rn6), or the mouse reference genome (mm10)) after eliminating those having low quality scores. The resulting files containing the reads were mapped to the reference genome (BAM files), where reads that overlapped the target region of interest were selected and the number of wild type reads versus the number of reads which contain an insertion, substitution, or deletion was calculated.
The editing percentage (e.g., the “editing efficiency” or “percent editing” or “indel frequency”) is defined as the total number of sequence reads with insertions/deletions (“indels”) or substitutions over the total number of sequence reads, including wild type. […]

B1: G000502: TTR Cyno specific sgRNA modified sequence, SEQ ID NO: 114; guide sequence of CR000689; cross homologous between mouse and cyno (nucleic acid)
guide: mA*mC*mA*rCrArArArUrArCrCrArGrUrCrCrArGrCrGrGrUrUrUrUrArGrAmGmCmUmAmGmAmAmAmUmAmGmCrArArGrUrUrArArArArUrArArGrGrCrUrArGrUrCrCrGrUrUrArUrCrAmAmCmUmUmGmAmAmAmAmAmGmUmGmGmCmAmCmCmGmAmGmUmCmGmGmUmGmCmU*mU*mU*mU
12.5 ng mRNA, 3.9 nM sgRNA, Avg % Edit: 80.70%
